First the molecules themselves.
B1: GAS2-like protein 1, residues 209 to 276; numbered along this chain, Q99501 (parent)
chain: DELVREILGRCTCPDQFPMIKVSEGKYRVGDSSLLIFVRVLRSHVMVRVGGGWDTLEHYLDKHDPCRC

± gives the uncertainty stated by the source.

The data set covers variants of B1. Nature of the data set: abundance fitness (aPCA) (normalised: wild type 0, dead -1); higher = more abundant; growth selection in yeast, the domain comes from the species named. Particulars: Homo sapiens.
Take DELVREILGRCTCPDQFPDIKVSEGKYRVGDSSLLIFVRVLRSHVMVRVGGGWDTLEHYLDKHDPCRC: the abundance fitness is -1.18 ± 0.33.
The value for DELVREILGRCTCPDQFPGIKVSEGKYRVGDSSLLIFVRVLRSHVMVRVGGGWDTLEHYLDKHDPCRC was -0.845 ± 0.17; that for DELVREILGRCTCPDQFPRIKVSEGKYRVGDSSLLIFVRVLRSHVMVRVGGGWDTLEHYLDKHDPCRC was -0.516 ± 0.081; that for DELVREILGRCTCPDQFPPIKVSEGKYRVGDSSLLIFVRVLRSHVMVRVGGGWDTLEHYLDKHDPCRC was -1.05 ± 0.26.
The value for DELVREILGRCTCPDQFPIIKVSEGKYRVGDSSLLIFVRVLRSHVMVRVGGGWDTLEHYLDKHDPCRC was -0.345 ± 0.083.
With DELVREILGRCTCPDQFPCIKVSEGKYRVGDSSLLIFVRVLRSHVMVRVGGGWDTLEHYLDKHDPCRC, the abundance fitness is -0.664 ± 0.24.
For the variant DELVREILGRCTCPDQFPHIKVSEGKYRVGDSSLLIFVRVLRSHVMVRVGGGWDTLEHYLDKHDPCRC, the abundance fitness was -0.429 ± 0.13.
The value for DELVREILGRCTCPDQFPEIKVSEGKYRVGDSSLLIFVRVLRSHVMVRVGGGWDTLEHYLDKHDPCRC was -1.02 ± 0.36; that for DELVREILGRCTCPDQFPFIKVSEGKYRVGDSSLLIFVRVLRSHVMVRVGGGWDTLEHYLDKHDPCRC was 0.171 ± 0.071; that for DELVREILGRCTCPDQFPLIKVSEGKYRVGDSSLLIFVRVLRSHVMVRVGGGWDTLEHYLDKHDPCRC was -0.011 ± 0.044.
Under DELVREILGRCTCPDQFPSIKVSEGKYRVGDSSLLIFVRVLRSHVMVRVGGGWDTLEHYLDKHDPCRC stands -0.895 ± 0.13; under DELVREILGRCTCPDQFPQIKVSEGKYRVGDSSLLIFVRVLRSHVMVRVGGGWDTLEHYLDKHDPCRC, -0.961 ± 0.25.
In the case of DELVREILGRCTCPDQFPKIKVSEGKYRVGDSSLLIFVRVLRSHVMVRVGGGWDTLEHYLDKHDPCRC, the abundance fitness is -0.527 ± 0.27.
The value for DELVREILGRCTCPDQFPTIKVSEGKYRVGDSSLLIFVRVLRSHVMVRVGGGWDTLEHYLDKHDPCRC was -0.96 ± 0.17; that for DELVREILGRCTCPDQFPWIKVSEGKYRVGDSSLLIFVRVLRSHVMVRVGGGWDTLEHYLDKHDPCRC was -0.121 ± 0.079.
The value for DELVREILGRCTCPDQFPNIKVSEGKYRVGDSSLLIFVRVLRSHVMVRVGGGWDTLEHYLDKHDPCRC was -0.74 ± 0.3; that for DELVREILGRCTCPDQFPAIKVSEGKYRVGDSSLLIFVRVLRSHVMVRVGGGWDTLEHYLDKHDPCRC was -0.539 ± 0.061; that for DELVREILGRCTCPDQFPMIAVSEGKYRVGDSSLLIFVRVLRSHVMVRVGGGWDTLEHYLDKHDPCRC was -0.748 ± 0.14.
With DELVREILGRCTCPDQFPMICVSEGKYRVGDSSLLIFVRVLRSHVMVRVGGGWDTLEHYLDKHDPCRC, the abundance fitness was -0.543 ± 0.21.
The value for DELVREILGRCTCPDQFPMLKVSEGKYRVGDSSLLIFVRVLRSHVMVRVGGGWDTLEHYLDKHDPCRC was -0.151 ± 0.06; that for DELVREILGRCTCPDQFPMKKVSEGKYRVGDSSLLIFVRVLRSHVMVRVGGGWDTLEHYLDKHDPCRC was -0.037 ± 0.2; that for DELVREILGRCTCPDQFPMHKVSEGKYRVGDSSLLIFVRVLRSHVMVRVGGGWDTLEHYLDKHDPCRC was 0.167 ± 0.12.
In the case of DELVREILGRCTCPDQFPMCKVSEGKYRVGDSSLLIFVRVLRSHVMVRVGGGWDTLEHYLDKHDPCRC, the abundance fitness was -0.366 ± 0.1.
Under DELVREILGRCTCPDQFPMPKVSEGKYRVGDSSLLIFVRVLRSHVMVRVGGGWDTLEHYLDKHDPCRC stands -0.917 ± 0.25.
For the variant DELVREILGRCTCPDQFPMNKVSEGKYRVGDSSLLIFVRVLRSHVMVRVGGGWDTLEHYLDKHDPCRC, the abundance fitness is -0.111 ± 0.16.
As to DELVREILGRCTCPDQFPMGKVSEGKYRVGDSSLLIFVRVLRSHVMVRVGGGWDTLEHYLDKHDPCRC, the abundance fitness is -0.498 ± 0.073.
Turning to DELVREILGRCTCPDQFPMYKVSEGKYRVGDSSLLIFVRVLRSHVMVRVGGGWDTLEHYLDKHDPCRC, the abundance fitness came out at 0.054 ± 0.054.
For the variant DELVREILGRCTCPDQFPMRKVSEGKYRVGDSSLLIFVRVLRSHVMVRVGGGWDTLEHYLDKHDPCRC, the abundance fitness is -0.009 ± 0.046.
The value for DELVREILGRCTCPDQFPMVKVSEGKYRVGDSSLLIFVRVLRSHVMVRVGGGWDTLEHYLDKHDPCRC was -0.021 ± 0.052; that for DELVREILGRCTCPDQFPMSKVSEGKYRVGDSSLLIFVRVLRSHVMVRVGGGWDTLEHYLDKHDPCRC was -0.207 ± 0.064.
Under DELVREILGRCTCPDQFPMEKVSEGKYRVGDSSLLIFVRVLRSHVMVRVGGGWDTLEHYLDKHDPCRC stands -0.016 ± 0.087; under DELVREILGRCTCPDQFPMFKVSEGKYRVGDSSLLIFVRVLRSHVMVRVGGGWDTLEHYLDKHDPCRC, -0.096 ± 0.069; under DELVREILGRCTCPDQFPMQKVSEGKYRVGDSSLLIFVRVLRSHVMVRVGGGWDTLEHYLDKHDPCRC, 0.026 ± 0.1.
For the variant DELVREILGRCTCPDQFPMWKVSEGKYRVGDSSLLIFVRVLRSHVMVRVGGGWDTLEHYLDKHDPCRC, the abundance fitness came out at 0.008 ± 0.06.
Consider DELVREILGRCTCPDQFPMAKVSEGKYRVGDSSLLIFVRVLRSHVMVRVGGGWDTLEHYLDKHDPCRC, for which the abundance fitness is -0.216 ± 0.08.
With DELVREILGRCTCPDQLPMIKVSEGKYRVGDSSLLIFVRVLRSHVMVRVGGGWDTLEHYLDKHDPCRC, the abundance fitness is -0.667 ± 0.049.
On to DELVREILGRCTCPDQYPMIKVSEGKYRVGDSSLLIFVRVLRSHVMVRVGGGWDTLEHYLDKHDPCRC, for which the abundance fitness is 0.098 ± 0.088.
Turning to DELVREILGRCTCPDQMPMIKVSEGKYRVGDSSLLIFVRVLRSHVMVRVGGGWDTLEHYLDKHDPCRC, the abundance fitness is -0.777 ± 0.16.
The value for DELVREILGRCTCPDQRPMIKVSEGKYRVGDSSLLIFVRVLRSHVMVRVGGGWDTLEHYLDKHDPCRC was -0.865 ± 0.1.
